These results are taken from US20250230254A1 (Janssen / Centocor, published 2025).

Assay [1] has as its target T1, KLK2 (UniProt P20151 25-261, limits assumed). Put plainly: cell-based or functional assay.
The target in assay [2] is T1, KLK2. Put plainly: cell-based or functional assay. The source holds these as a separate data set.

T1 sequence (P20151 25-261 limits assumed): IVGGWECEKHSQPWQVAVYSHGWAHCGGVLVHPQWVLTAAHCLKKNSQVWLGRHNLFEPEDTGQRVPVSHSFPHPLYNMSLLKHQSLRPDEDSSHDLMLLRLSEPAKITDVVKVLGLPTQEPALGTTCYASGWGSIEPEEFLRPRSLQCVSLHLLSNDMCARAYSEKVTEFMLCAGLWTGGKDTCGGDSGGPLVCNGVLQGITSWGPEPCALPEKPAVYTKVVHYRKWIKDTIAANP

B1: KL2B870 (KL2B30 in hIgG1-RE) (antibody)
heavy: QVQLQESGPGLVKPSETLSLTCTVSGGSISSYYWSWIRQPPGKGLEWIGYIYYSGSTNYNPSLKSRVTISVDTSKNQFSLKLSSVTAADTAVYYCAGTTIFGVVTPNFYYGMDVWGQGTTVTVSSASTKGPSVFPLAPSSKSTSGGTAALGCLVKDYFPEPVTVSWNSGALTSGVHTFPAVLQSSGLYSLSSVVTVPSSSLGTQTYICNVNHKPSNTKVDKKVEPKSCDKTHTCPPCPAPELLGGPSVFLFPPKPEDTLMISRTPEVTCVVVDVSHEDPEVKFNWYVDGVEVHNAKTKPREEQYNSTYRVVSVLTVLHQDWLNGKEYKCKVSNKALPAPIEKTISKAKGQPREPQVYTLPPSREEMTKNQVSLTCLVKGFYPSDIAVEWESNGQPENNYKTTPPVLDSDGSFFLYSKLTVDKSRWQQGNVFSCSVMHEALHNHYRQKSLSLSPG
light: DIQMTQSPSFLSASVGDRVTITCRASQGISSYLAWYQQKPGKAPKFLIYAASTLQSGVPSRFSGSGSGTEFTLTISSLQPEDFATYYCQQLNSYPLTFGGGTKVEIKRTVAAPSVFIFPPSDEQLKSGTASVVCLLNNFYPREAKVQWKVDNALQSGNSQESVTEQDSKDSTYSLSSTLTLSKADYEKHKVYACEVTHQGLSSPVTKSFNRGEC
With B1, the “ADCC activity, percent cell killing of VCaP cells by PBMC” value (“ADCC activity, percent cell killing” for short) in assay [1] was approximately 73%. For the same molecule, in assay [2], the “ADCC killing EC50 (M), PBMC effector cells on VCaP cells, 48 hours” value (“ADCC killing EC50 (M)” below) is 1e-09 M.

B2: KL2B872.CLF (antibody, human IgG1, kappa)
heavy: not shown
light: DIQMTQSPSFLSASVGDRVTITCRASQGISSYLAWYQQKPGKAPKFLIYAASTLQSGVPSRFSGSGSGTEFTLTISSLQPEDFATYYCQQLNSYPLTFGGGTKVEIKRTVAAPSVFIFPPSDEQLKSGTASVVCLLNNFYPREAKVQWKVDNALQSGNSQESVTEQDSKDSTYSLSSTLTLSKADYEKHKVYACEVTHQGLSSPVTKSFNRGEC
modifications: low fucosylation of the Fc oligosaccharide (less than 10% fucosylation)
Take B2: the “ADCC activity, percent cell killing” value in assay [1] was approximately 85%. The “ADCC killing EC50 (M)” value in assay [2] stood at 4.12e-10 M.

B3: KL2B870.CLF (antibody, human IgG1, kappa)
heavy: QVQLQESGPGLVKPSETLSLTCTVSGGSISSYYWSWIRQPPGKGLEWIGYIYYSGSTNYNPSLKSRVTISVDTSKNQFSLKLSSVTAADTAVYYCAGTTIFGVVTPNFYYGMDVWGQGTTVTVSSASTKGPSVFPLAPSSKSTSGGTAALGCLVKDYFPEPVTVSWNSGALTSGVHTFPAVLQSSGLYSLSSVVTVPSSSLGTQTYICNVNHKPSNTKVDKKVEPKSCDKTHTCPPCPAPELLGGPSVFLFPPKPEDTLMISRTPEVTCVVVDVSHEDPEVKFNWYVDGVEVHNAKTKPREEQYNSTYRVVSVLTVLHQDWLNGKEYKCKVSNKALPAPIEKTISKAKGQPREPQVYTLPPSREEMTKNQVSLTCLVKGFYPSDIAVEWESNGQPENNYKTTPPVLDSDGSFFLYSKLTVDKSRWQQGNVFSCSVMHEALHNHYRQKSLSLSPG
light: DIQMTQSPSFLSASVGDRVTITCRASQGISSYLAWYQQKPGKAPKFLIYAASTLQSGVPSRFSGSGSGTEFTLTISSLQPEDFATYYCQQLNSYPLTFGGGTKVEIKRTVAAPSVFIFPPSDEQLKSGTASVVCLLNNFYPREAKVQWKVDNALQSGNSQESVTEQDSKDSTYSLSSTLTLSKADYEKHKVYACEVTHQGLSSPVTKSFNRGEC
modifications: low fucosylation of the Fc oligosaccharide (less than 10% fucosylation)
For the molecule B3, in assay [1], the “ADCC activity, percent cell killing” value is approximately 89%. Also, in assay [2], the “ADCC killing EC50 (M)” value amounted to 3.54e-10 M.
